The values below come from publication PMC6805918, “Extracellular pyridine nucleotides trigger plant systemic immunity through a lectin receptor kinase/BAK1 complex” (Nature Communications, 2019).

The target of the experiment is T1, GST-BAK1KD (cytoplasmic kinase domain of BAK1, AAs 250-615, fused to GST) (Arabidopsis thaliana, UniProt Q94F62 250-615).
T1 construct: BRASSINOSTEROID …1-ASSOCIATED KINASE1 (BAK1), Arabidopsis thaliana, cytoplasmic kinase domain, amino acids 250-615; Cloned into the EcoRI/SalI site of pGEX-4T-1; source: E. coli BL21(DE3), purified; not shown: GST, N-terminal, kept
T1 sequence (looked up): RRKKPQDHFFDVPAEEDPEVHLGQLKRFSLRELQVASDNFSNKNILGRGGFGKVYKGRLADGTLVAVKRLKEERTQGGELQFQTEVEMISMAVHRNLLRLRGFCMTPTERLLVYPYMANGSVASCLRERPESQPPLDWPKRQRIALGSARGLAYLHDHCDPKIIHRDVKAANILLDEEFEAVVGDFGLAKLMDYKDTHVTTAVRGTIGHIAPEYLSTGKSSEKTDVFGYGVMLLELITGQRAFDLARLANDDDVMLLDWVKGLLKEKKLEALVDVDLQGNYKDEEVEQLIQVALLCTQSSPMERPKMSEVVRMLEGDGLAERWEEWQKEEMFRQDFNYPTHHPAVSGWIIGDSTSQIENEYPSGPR
In words: pull-down; 1 μg MBP or MBP-LecRK-VI.2KD incubated with 1 μg GST-BAK1KD in 20 mM Tris-HCl, 200 mM NaCl, 1 mM EDTA, pH 7.4, 4 °C; pulled down with amylose resin beads; washes with 0.6% Triton X-100; immunoblot with anti-MBP and anti-GST. The note with it: both partners purified.

B1: MBP-LecRK-VI.2KD (cytoplasmic kinase domain of LecRK-VI.2, AAs 331-682, fused to maltose-binding protein) (domain or fragment, Arabidopsis thaliana, UniProt Q9M021 331-682, looked up)
chain: FVMYKKRLGQEETLEDWEIDHPRRLRYRDLYVATDGFKKTGIIGTGGFGTVFKGKLPNSDPIAVKKIIPSSRQGVREFVAEIESLGKLRHKNLVNLQGWCKHKNDLLLIYDYIPNGSLDSLLYTVPRRSGAVLSWNARFQIAKGIASGLLYLHEEWEKIVIHRDVKPSNVLIDSKMNPRLGDFGLARLYERGTLSETTALVGTIGYMAPELSRNGNPSSASDVFAFGVLLLEIVCGRKPTDSGTFFLVDWVMELHANGEILSAIDPRLGSGYDGGEARLALAVGLLCCHQKPASRPSMRIVLRYLNGEENVPEIDDEWGYSKSSRSEFGSKLVGYVSSTSITRVSSTSRISQ
notes: lectin receptor kinase LecRK-VI.2, Arabidopsis thaliana, gene At5g01540, cytoplasmic kinase domain, amino acids 331-682; Cloned into the BamHI/SalI site of pMAL-p2X; source: E. coli BL21(DE3), purified; not shown: MBP, N-terminal, kept
Turning to B1, the binding result was “binds”.
